Changes are numbered by the printed parent chain.

Here are results for 14 molecules from patent US20120156201A1 (PROTAB, published 2012).

The target of test [1] is T1, peptide-6 (HSP65-derived peptide, GPKGRNVVLEKKWGAP) (Mycobacterium tuberculosis).
T1 construct: also called peptide-6 antigen; 15
T1 peptide: GPKGRNVVLEKKWGAP
As to the kind of experiment: ELISA, plates precoated with 10 µg/ml peptide-6, goat anti-human IgG peroxidase. On the technique in general: An ELISA detects its analyte on a solid surface through an enzyme-linked reagent.

Test [2] deals with T1, peptide-6 (HSP65-derived peptide, …). As to the kind of experiment: ELISA, plates precoated with 10 µg/ml peptide-6, goat anti-mouse IgM peroxidase.
Test [3] shares this target. The experiment in a line: ELISA, peptide-6 coated at 10 µg/ml.
Test [4] shares this target. The experiment in a line: ELISA, peptide-6 coated plate.
Test [5] has the same target. As to the kind of experiment: ELISA, peptide-6 coated at 10 µg/ml, anti-human IgG kappa peroxidase.
For test [6], the target named is T2, human adenylyl cyclase-associated protein 1 (CAP1) fused to His tag at the N-terminus (human, UniProt Q01518 1-475).
T2 construct: also called His-CAP1; His-tagged CAP1; not shown: 6xHIS tag at the N terminus from a modified Pet22b vector
T2 sequence (Q01518 whole entry, the tested form may be a part): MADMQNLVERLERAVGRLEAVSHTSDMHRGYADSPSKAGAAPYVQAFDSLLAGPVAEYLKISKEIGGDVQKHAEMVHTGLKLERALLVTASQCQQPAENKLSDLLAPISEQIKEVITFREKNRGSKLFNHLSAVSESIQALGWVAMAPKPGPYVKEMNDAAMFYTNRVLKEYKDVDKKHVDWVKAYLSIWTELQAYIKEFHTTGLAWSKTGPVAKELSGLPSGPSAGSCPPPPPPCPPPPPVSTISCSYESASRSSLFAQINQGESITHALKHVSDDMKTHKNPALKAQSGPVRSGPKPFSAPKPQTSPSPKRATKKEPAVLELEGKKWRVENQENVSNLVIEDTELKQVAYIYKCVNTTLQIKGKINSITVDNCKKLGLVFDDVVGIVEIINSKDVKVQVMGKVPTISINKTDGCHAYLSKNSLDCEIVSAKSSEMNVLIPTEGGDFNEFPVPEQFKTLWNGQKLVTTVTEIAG
The experiment in a line: Western blot of over-expressed and purified His-CAP1. In general terms: Immunoblotting shows a protein as a band on a membrane.

B1: chimeric mouse-human anti-peptide-6 IgG1 antibody (antibody, V domains shown)
VH: QVTLKESGPGILQPSQTLSLTCSFSGFSLSTSNMGVGWIRQPSGKGLEWLLHILWNDSKYYNPALKSRLTISKDTYNNQVFLKIANVDTADTATYYCARMGGYYGNYGYYAMDYWGQGTSVTVSS
VL: QIVLTQSPAIMSASLGERVTMTCTASSSVSSSYLHWYQQKPGSSPKLWIYSTSNLASGVPARFSGSGSGTSYSLTISSMEAEDAATYYCHQYHRSPPTFGSGTKLEIK
notes: also called chimeric mouse IgG1; chimeric mouse antibody
In the case of B1, in test [1], the binding result was “binds”.

B2: mouse anti-peptide-6 monoclonal antibody (IgM) (antibody, V domains shown)
VH: B1 VH
VL: B1 VL
notes: also called mouse-IgM
For the molecule B2, the binding result in test [2] was “binds”.

B3: humanized anti-peptide-6 antibody variant VH2/VK2 (antibody, V domains shown)
VH: QVTLKESGPALVKPTQTLTLTCSFSGFSLSTSNMGVGWIRQPAGKGLEWLLHILWNDSKYYNPALKSRLTISKDTYKNQVVLTMTNMDPVDTATYYCARMGGYYGNYGYYAMDYWGQGTLVTVSS
VL: QIVLTQSPATLSLSPGERATMSCTASSSVSSSYLHWYQQKPGKAPKLWIYSTSNLASGVPSRFSGSGSGTDYTLTISSLQPEDFATYYCHQYHRSPPTFGQGTKLEIK
On to B3, for which the binding result in test [3] is on record as “binds”.

B4: humanized anti-peptide-6 antibody variant VH2/VK1 (antibody, V domains shown)
VH: B3 VH
VL: B3 VL with T10I, P81A
For B4, the binding result in test [4] is given as “binds”.

B5: humanized anti-peptide-6 antibody variant VH4/VK2 (antibody, V domains shown)
VH: B3 VH with L51A, Y76S
VL: B3 VL
B5: the binding result in test [5] is “binds”.

B6: humanized anti-peptide-6 antibody variant VH3/VK2 (antibody, V domains shown)
VH: B3 VH with Y76S
VL: B3 VL
As for B6, the binding result in test [5] is “binds”.

B7: humanized anti-peptide-6 antibody variant VH4/VK1 (antibody, V domains shown)
VH: B3 VH with L51A, Y76S
VL: B3 VL with T10I, P81A
In the case of B7, the binding result in test [5] was “binds”.

B8: humanized anti-peptide-6 antibody variant VH3/VK3 (antibody, V domains shown)
VH: B3 VH with Y76S
VL: B3 VL with M21L
Consider B8, for which the binding result in test [5] is recorded as “binds”.

B9: humanized anti-peptide-6 antibody variant VH4/VK3 (antibody, V domains shown)
VH: B3 VH with L51A, Y76S
VL: B3 VL with M21L
As to B9, the binding result in test [5] is “binds”.

B10: humanized anti-peptide-6 antibody variant VH1/VK1 (antibody, V domains shown)
VH: B3 VH with L11I, A43S, L120S
VL: B3 VL with T10I, P81A
In the case of B10, the binding result in test [4] was “binds”.

B11: humanized anti-peptide-6 antibody variant VH1/VK2 (antibody, V domains shown)
VH: B3 VH with L11I, A43S, L120S
VL: B3 VL
With B11, in test [4], the binding result is given as “binds”.

B12: humanized anti-peptide-6 antibody variant VH3/VK1 (antibody, V domains shown)
VH: B3 VH with Y76S
VL: B3 VL with T10I, P81A
On to B12, for which the binding result in test [4] is on record as “binds”.

B13: humanized anti-peptide-6 antibody variant VH2/VK3 (antibody, V domains shown)
VH: B3 VH
VL: B3 VL with M21L
notes: also called humanized VH2/VK3; PRO01 VH2/VK3
In the case of B13, the binding result in test [3] and in test [6] was “binds” each time.

B14: humanized anti-peptide-6 antibody variant VH1/VK3 (antibody, V domains shown)
VH: B3 VH with L11I, A43S, L120S
VL: B3 VL with M21L
For B14, the binding result in test [4] is listed as “binds”.
